Experimental data: article PMC11813886

Columns and labels:
FHR-B_(Y162H) = target: T1, FHR-B_(Y162H); assay: AUC (analytical ultracentrifugation, sedimentation velocity), self-association (dimerization); conditions: chain shown with the change; PBS pH 7; parent: est. 1.0; read off a plot
T1 chain: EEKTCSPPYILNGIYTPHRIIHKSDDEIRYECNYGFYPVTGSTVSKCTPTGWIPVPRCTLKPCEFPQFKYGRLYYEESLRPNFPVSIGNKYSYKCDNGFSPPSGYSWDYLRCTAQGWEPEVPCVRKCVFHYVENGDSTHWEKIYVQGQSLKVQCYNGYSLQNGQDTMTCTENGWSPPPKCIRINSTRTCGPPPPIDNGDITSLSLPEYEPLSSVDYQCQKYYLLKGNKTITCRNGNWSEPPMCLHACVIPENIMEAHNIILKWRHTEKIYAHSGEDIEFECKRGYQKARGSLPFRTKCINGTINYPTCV

human C3b = assay: ELISA; conditions: chain shown with the change; human C3b-coated plates; value read at 50 nM protein (highest concentration); parent: est. 0.69; read off a plot
Sequence of human C3b (chain, as listed by the source, chain 1 of 2): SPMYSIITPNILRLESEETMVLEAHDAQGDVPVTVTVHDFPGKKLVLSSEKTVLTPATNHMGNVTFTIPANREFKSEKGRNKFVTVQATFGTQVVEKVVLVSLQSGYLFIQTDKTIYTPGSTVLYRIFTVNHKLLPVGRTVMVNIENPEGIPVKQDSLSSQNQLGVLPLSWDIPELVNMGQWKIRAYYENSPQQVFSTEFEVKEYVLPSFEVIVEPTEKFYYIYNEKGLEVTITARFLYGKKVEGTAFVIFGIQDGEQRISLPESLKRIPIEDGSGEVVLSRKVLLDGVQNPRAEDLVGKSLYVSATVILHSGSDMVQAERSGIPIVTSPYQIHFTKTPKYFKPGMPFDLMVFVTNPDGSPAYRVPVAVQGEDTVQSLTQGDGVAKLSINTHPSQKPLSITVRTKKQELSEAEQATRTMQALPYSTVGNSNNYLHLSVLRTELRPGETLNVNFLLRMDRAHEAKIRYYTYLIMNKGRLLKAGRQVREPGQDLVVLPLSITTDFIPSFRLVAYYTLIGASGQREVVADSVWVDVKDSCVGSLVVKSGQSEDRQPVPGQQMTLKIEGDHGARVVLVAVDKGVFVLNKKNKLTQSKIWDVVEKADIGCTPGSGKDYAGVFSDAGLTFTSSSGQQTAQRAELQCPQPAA
Sequence of human C3b (chain, as listed by the source, chain 2 of 2): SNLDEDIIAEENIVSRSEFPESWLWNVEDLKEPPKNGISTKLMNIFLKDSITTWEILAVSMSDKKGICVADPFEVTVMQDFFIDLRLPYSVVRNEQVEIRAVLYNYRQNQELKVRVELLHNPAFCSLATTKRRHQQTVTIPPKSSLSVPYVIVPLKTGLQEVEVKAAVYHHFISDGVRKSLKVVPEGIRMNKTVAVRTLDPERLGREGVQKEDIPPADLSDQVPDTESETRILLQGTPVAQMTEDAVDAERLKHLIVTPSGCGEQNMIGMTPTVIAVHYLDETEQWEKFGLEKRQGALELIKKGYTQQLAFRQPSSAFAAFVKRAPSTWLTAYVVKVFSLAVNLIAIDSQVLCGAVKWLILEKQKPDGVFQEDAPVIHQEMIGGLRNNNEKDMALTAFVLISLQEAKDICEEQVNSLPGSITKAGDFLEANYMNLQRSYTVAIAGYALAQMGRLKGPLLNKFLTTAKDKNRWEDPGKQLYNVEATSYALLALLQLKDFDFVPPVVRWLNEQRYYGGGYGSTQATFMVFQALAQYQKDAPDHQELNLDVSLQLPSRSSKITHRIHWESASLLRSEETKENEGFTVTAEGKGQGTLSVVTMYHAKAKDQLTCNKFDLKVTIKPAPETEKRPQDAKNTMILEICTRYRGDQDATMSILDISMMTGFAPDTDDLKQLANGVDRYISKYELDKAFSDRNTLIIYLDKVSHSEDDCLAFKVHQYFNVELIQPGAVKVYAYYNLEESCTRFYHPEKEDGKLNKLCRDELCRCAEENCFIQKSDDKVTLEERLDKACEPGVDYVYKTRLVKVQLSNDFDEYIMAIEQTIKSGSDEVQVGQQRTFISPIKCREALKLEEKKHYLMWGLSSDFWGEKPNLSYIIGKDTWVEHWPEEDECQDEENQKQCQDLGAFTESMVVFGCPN

FHR-B_(T161A,I166V) = target: T2, FHR-B_(T161A,I166V); assay: AUC (analytical ultracentrifugation, sedimentation velocity), self-association (dimerization); conditions: chain shown with the change; PBS pH 7; parent: est. 1.0; read off a plot
T2 chain: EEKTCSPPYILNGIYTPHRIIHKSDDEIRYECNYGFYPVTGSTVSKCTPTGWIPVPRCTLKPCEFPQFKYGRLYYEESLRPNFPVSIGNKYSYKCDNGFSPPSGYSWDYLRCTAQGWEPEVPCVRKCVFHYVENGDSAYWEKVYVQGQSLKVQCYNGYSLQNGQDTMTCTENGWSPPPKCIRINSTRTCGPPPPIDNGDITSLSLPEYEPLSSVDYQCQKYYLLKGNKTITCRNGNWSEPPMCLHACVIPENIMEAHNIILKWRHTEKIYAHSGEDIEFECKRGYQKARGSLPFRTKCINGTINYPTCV

| Binder | other: c(S) height of dimer peak (normalised distribution) (FHR-B_(Y162H)) | response (human C3b) | other: c(S) height of dimer peak (normalised distribution) (FHR-B_(T161A,I166V)) |
| --- | --- | --- | --- |
| recombinant form of the native mouse FHR-B protein (rFHR-B) Y162H (protein) EEKTCSPPYILNGIYTPHRIIHKSDDEIRYECNYGFYPVTGSTVSKCTPTGWIPVPRCTLKPCEFPQFKYGRLYYEESLRPNFPVSIGNKYSYKCDNGFSPPSGYSWDYLRCTAQGWEPEVPCVRKCVFHYVENGDSTHWEKIYVQGQSLKVQCYNGYSLQNGQDTMTCTENGWSPPPKCIRINSTRTCGPPPPIDNGDITSLSLPEYEPLSSVDYQCQKYYLLKGNKTITCRNGNWSEPPMCLHACVIPENIMEAHNIILKWRHTEKIYAHSGEDIEFECKRGYQKARGSLPFRTKCINGTINYPTCV | 0.09 | 0.66 Abs 405nm | – |
| recombinant form of the native mouse FHR-B protein (rFHR-B) T161A; I166V (protein) EEKTCSPPYILNGIYTPHRIIHKSDDEIRYECNYGFYPVTGSTVSKCTPTGWIPVPRCTLKPCEFPQFKYGRLYYEESLRPNFPVSIGNKYSYKCDNGFSPPSGYSWDYLRCTAQGWEPEVPCVRKCVFHYVENGDSAYWEKVYVQGQSLKVQCYNGYSLQNGQDTMTCTENGWSPPPKCIRINSTRTCGPPPPIDNGDITSLSLPEYEPLSSVDYQCQKYYLLKGNKTITCRNGNWSEPPMCLHACVIPENIMEAHNIILKWRHTEKIYAHSGEDIEFECKRGYQKARGSLPFRTKCINGTINYPTCV | – | 0.66 Abs 405nm | 0.13 |
